# Numbered stars: 1 amine (or outer) side, 2 acyl side, 3 side chain; on linkers, the order of the positions; unused ones are H or OH. Square brackets hold non-standard residues; d marks the D form. Side chains are listed from the residue outwards. Ends that are not written are not given here. * marks the point of attachment. Malonyl(2,2-Me2,histaminyl) = CC(C)(C(=O)NCCc1cnc[nH]1)C(=O)*; C20 diacid = O=C(O)CCCCCCCCCCCCCCCCCCC(=O)*; C18 diacid = O=C(O)CCCCCCCCCCCCCCCCC(=O)*; C16 diacid = O=C(O)CCCCCCCCCCCCCCC(=O)*; γGlu = O=C(O)[C@H](CCC(=O)[*:2])N[*:1]; Desaminohistidyl = O=C(CCc1c[nH]cn1)*; Palmitoyl = CCCCCCCCCCCCCCCC(=O)*; Trx = NC[C@H]1CC[C@H](C(=O)O)CC1; AEEA = NCCOCCOCC(=O)O; Aib = CC(C)(N)C(=O)O; Inp = O=C(O)C1CCNCC1
# B1: N^8 3H-Imidazol-4-yl-acetyl, N^ε28-[2-(2-{2-[2-(2-{2-[(S)-4-Carboxy-4-(17-carboxyheptadecanoylamino)butyrylamino]ethoxy}ethoxy)acetylamino] … (peptide)
# peptide: AEGTFTSDVSSYLEGQAAK([AEEA-AEEA-γGlu-C18 diacid])EFIAHLVQGRG
# modifications: not fully specified (N-terminus); printed as N^8 3H-Imidazol-4-yl-acetyl, N^ε28-[2-(2-{2-[2-(2-{2-[(S)-4-Carboxy-4-(17-carboxyheptadecanoylamino)butyrylamino]ethoxy}ethoxy)acetylamino] ethoxy}ethoxy)acetyl][His^31,Gln^34]GLP-1(8-37)-peptide
# B2: [Aib^8,His^31,Gln^34]GLP-1(7-37)-peptide (peptide)
# peptide: HXEGTFTSDVSSYLEGQAAKEFIAHLVQGRG
# modifications: Aib8 (GLP-1(7-37) numbering)
# notes: unacylated analogue; also called (8Aib, 31H, 34Q)
# B3: [Imp^7,Glu^22,Arg^26,His^31,Gln^34,Lys^37]-GLP-1-(7-37)-peptide (peptide)
# peptide: [Desaminohistidyl]AEGTFTSDVSSYLEEQAAREFIAHLVQGRK
# notes: unacylated analogue; also called Chem. 40
# Experiments:
# [1] = target: T1, human GLP-1 receptor (human, UniProt P43220 24-463); assay: SPA, displacement of 125I-GLP-1(7-36)NH2 from hGLP-1R membranes, 2.0% HSA
# T1 construct: whole, on cells; Used as purified plasma membranes of the transfected hamster cell line, not as intact cells; also called hGLP-1
# Experimental: (§1) 25 ul (micro liter) of test compounds were added to Optiplate. HSA ("high albumin" experiment containing 2% HSA), or buffer ("low albumin" experiment containing 0.005% HSA), was added (50 ul). 5-10 ug protein/sample was added (50 ul) corresponding to 0.1-0.2 mg protein/ml (to be preferably optimised for each membrane preparation). SPA-particles (Wheatgerm agglutinin SPA beads, Perkin Elmer, #RPNQ0001) were added in an amount of 0.5 mg/well (50 ul). […] The plates were sealed with PlateSealer and incubated for 120 minutes at 30° C. while shaking. The plates were centrifuged (1500 rpm, 10 min) and counted in Topcounter.
# [2] = target: T1, human GLP-1 receptor; assay: SPA, displacement of 125I-GLP-1(7-36)NH2 from hGLP-1R membranes, 0.005% HSA
# Experimental: as §1
Binder,IC50 [1] [nM],IC50 [2] [nM]
B1,≤ 1000,< 600
"HAEGTFTSDVSSYLEGQAAK([γGlu-Palmitoyl])EFIAHLVQGRG [N^ε26-[(4S)-4-carboxy-4-(hexadecanoylamino)butanoyl]-[His^31,Gln^34]-GLP-1-(7-37)-peptide]",≤ 1000,< 600
HAEGTFTSDVSSYLEGQAAK([AEEA-AEEA-γGlu-C18 diacid])EFIAHLVQGRG,≤ 1000,< 600
HSEGTFTSDVSSYLEGQAAK([AEEA-AEEA-γGlu-C18 diacid])EFIAHLVQGRG,≤ 1000,< 600
HAEGTFTSDVSSYLEK([AEEA-AEEA-γGlu-C18 diacid])QAAREFIAHLVQGRG,≤ 1000,< 600
HAEGTK([AEEA-AEEA-γGlu-C18 diacid])TSDVSSYLEEQAAREFIAHLVQGRG,≤ 1000,< 600
HGEGTFTSDVSSYLEGQAAK([AEEA-AEEA-γGlu-C18 diacid])EFIAHLVQGRG,≤ 1000,< 600
HAEGTK([AEEA-AEEA-C18 diacid])TSDVSSYLEEQAAREFIAHLVQGRG,≤ 1000,< 600
HAEGTFTSDVSSYLEEQK([AEEA-AEEA-γGlu-C18 diacid])AREFIAHLVQGRG,≤ 1000,< 600
"{Malonyl(2,2-Me2,histaminyl)}-EGTFTSDVSSYLEGQAAK([AEEA-AEEA-γGlu-C18 diacid])EFIAHLVQGRG (also called Chem. 37)",≤ 1000,< 600
B2,≤ 1000,< 600
"HXEGTFTSDVSSYLEGQAAKEFIAHLVQGRG (Aib8; Lys26 N-epsilon-acylated (side chain as in name); GLP-1(7-37) numbering) [N^ε26-[2-(2-{2-[2-(2-{2-[(S)-4-Carboxy-4-(15-carboxypentadecanoylamino)butyrylamino]ethoxy}ethoxy)acetylamino]ethoxy}ethoxy)acetyl][Aib^8,His^31,Gln^34]GLP-1(7- …, listing 1 of 5 here]",≤ 1000,< 600
"HXEGTFTSDVSSYLEGQAAKEFIAHLVQGRG (Aib8; Lys26 N-epsilon-acylated (side chain as in name); GLP-1(7-37) numbering) [N^ε26[2-(2-{2-[(S)-4-Carboxy-4-(2-{2-[2-(17-carboxy-heptadecanoylamino)ethoxy]ethoxy}acetylamino)butyryl amino]ethoxy}ethoxy)acetyl] …, listing 2 of 5 here]",≤ 1000,< 600
"HXEGTFTSDVSSYLEGQAAKEFIAHLVQGRG (Aib8; Lys26 N-epsilon-acylated (side chain as in name); GLP-1(7-37) numbering) [N^ε26 [(S)-4-Carboxy-4-(2-{2-[2-(2-{2-[2-(17-carboxy-heptadecanoylamino)ethoxy]ethoxy}acetylamino)ethoxy]-ethoxy}acetylamino)butyryl] …, listing 3 of 5 here]",≤ 1000,< 600
"HXEGTFTSDVSSYLEGQAAKEFIAHLVQGRG (Aib8; Lys26 N-epsilon-acylated (side chain as in name); GLP-1(7-37) numbering) [N^ε26 [(S)-4-Carboxy-4-(15-carboxypentadecanoylamino)butyryl][Aib^8,His^31,Gln^34]GLP-1(7-37)-peptide, listing 4 of 5 here]",≤ 1000,< 600
"HXEGTFTSDVSSYLEGQAAKEFIAHLVQGRG (Aib8; Lys26 N-epsilon-acylated (side chain as in name); GLP-1(7-37) numbering) [N^ε26 [2-(2-(2-{2-[(S)-4-Carboxy-4-(15-carboxypentadecanoylamino)butyrylamino]ethoxy}ethoxy)acetyl][Aib^8,His^31,Gln^34]GLP-1(7-37)-peptide, listing 5 of 5 here]",≤ 1000,< 600

Binder,IC50 [1] [nM],IC50 [2] [nM]
H[Aib]EGTK([AEEA-AEEA-γGlu-C18 diacid])TSDVSSYLEGQAAKEFIAHLVQGRG,≤ 1000,< 600
H[Aib]EGTFTSDK([AEEA-AEEA-γGlu-C18 diacid])SSYLEEQAAREFIAHLVQGRG,≤ 1000,< 600
H[Aib]EGTFTSDVSK([AEEA-AEEA-γGlu-C18 diacid])YLEEQAAREFIAHLVQGRG,≤ 1000,< 600
H[Aib]EGTK([AEEA-AEEA-C18 diacid])TSDVSSYLEEQAAREFIAHLVQGRG,≤ 1000,< 600
H[Aib]EGTFTSDVSSYLEEQAARK([AEEA-AEEA-γGlu-C18 diacid])FIAHLVQGRG,≤ 1000,< 600
H[Aib]EGTK([AEEA-AEEA-γGlu-C18 diacid])TSDVSSYLEEQAAREFIAHLVQGRG,≤ 1000,< 600
H[Aib]EGTFTSDVSSYLEEQK([AEEA-AEEA-γGlu-C18 diacid])AREFIAHLVQGRG,≤ 1000,< 600
H[Aib]EGTFTSDVSK([AEEA-AEEA-γGlu-Inp-C20 diacid])YLEEQAAHEFIAHLVQGRG,≤ 1000,< 600
H[Aib]EGTFTSDVSSYLEEQAARK([AEEA-AEEA-γGlu-C18 diacid])FIEHLVQGRP,≤ 1000,< 600
H[Aib]EGTFTSDVSSYLEGQAIRK([AEEA-AEEA-γGlu-C18 diacid])FIAHLVQGRG,≤ 1000,< 600
H[Aib]EGTFTSDVSSYLEGQAARK([AEEA-AEEA-γGlu-C18 diacid])FIAHLVQGRG,≤ 1000,< 600
B3,≤ 1000,< 600
"HAEGTFTSDVSSYLEGQAAK([γGlu-C16 diacid])EFIAHLVQGRG [N^ε26-[(4S)-4-carboxy-4-(15-carboxypentadecanoylamino)butanoyl]-[His^31,Gln^34]-GLP-1-(7-37)-peptide]",≤ 1000,< 600
H[dA]EGTFTSDVSSYLEGQAAK([AEEA-AEEA-γGlu-C18 diacid])EFIAHLVQGRG,≤ 1000,< 600
[Desaminohistidyl]AEGTFTSDVSSYLEEQAAREFIAHLVQGRK([AEEA-AEEA-γ‑D‑Glu-Trx-C20 diacid]),≤ 1000,< 600
